For data set [1], the system named is Saccharomyces cerevisiae. Description: protein stability index of tFT-peptide fusion in wild type (PSI (0-1 scale)); higher = more stable (slower turnover). The conditions noted are these: genetic background: wild type. The method, then: (§1)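 MPS profiling in S. cerevisiae of two library types built from selected 12-aa C-degron peptides (IN1, IN2, LN1, LN3, VN2, R1-R5, W1-W3, Atg1 and Rpa12 C-termini): saturation mutagenesis libraries and C-terminal +1 capping libraries (13 aa). Each peptide is fused to the C-terminus of a sfGFP-mCherry timer, after a GGGS linker. Cells are FACS-sorted into 8 mCherry/sfGFP bins and sequenced. PSI runs from 0 (unstable) to 1 (stable), measured once in wild type and in the das1Δ or doa10Δ background.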

Data set [2] relates to Saccharomyces cerevisiae. The data set can be described thus: protein stability index of tFT-peptide fusion in deletion strain of DAS1 (PSI (0-1 scale)); higher = more stable (slower turnover). The procedure: as §1
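Throughout, for protein stability index of tFT-peptide fusion in deletion strain of DAS1: PSI is a weighted mean of each variant's read distribution over the sorted stability bins, computed only for variants having over 10 reads in total.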
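Throughout, for protein stability index of tFT-peptide fusion in wild type: PSI derived as read-weighted mean over the 8 sorting bins, only variants exceeding 10 total reads kept, mCherry placed adjacent to the peptide and sfGFP distal.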

In the case of KKHKKGQKQQIN, the protein stability index amounted to 0.404 in the data set on Saccharomyces cerevisiae [1] and 0.554 with Saccharomyces cerevisiae [2].
The corresponding values for KKHKKGQKRKIN are 0.275 and 0.655.
As for KKHKKGQQQKIN, the protein stability index in the data set on Saccharomyces cerevisiae [1] amounted to 0.162; in the data set on Saccharomyces cerevisiae [2], 0.571.
In the case of KKHKKGSKQKIN, the protein stability index was found to be 0.0787 in the data set on Saccharomyces cerevisiae [1] and 0.673 with Saccharomyces cerevisiae [2].
For KKHKKHQKQKIN, the protein stability index with Saccharomyces cerevisiae [1] was determined as 0.0431; with Saccharomyces cerevisiae [2], 0.521.
KKHKKIQKQKIN: the protein stability index in the data set with Saccharomyces cerevisiae [1] amounted to 0.0571; with Saccharomyces cerevisiae [2] it was 0.631.
For KKHKKMQKQKIN, the protein stability index with Saccharomyces cerevisiae [1] was determined as 0.027; in the data set on Saccharomyces cerevisiae [2], 0.571.
With KKHKKWQKQKIN, the protein stability index was determined as 0.0352 in the data set on Saccharomyces cerevisiae [1] and 0.585 in the data set on Saccharomyces cerevisiae [2].
As to KKHKQGQKQKIN, the protein stability index was 0.0536 with Saccharomyces cerevisiae [1] and 0.73 in the data set on Saccharomyces cerevisiae [2].
The corresponding values for KKHKRGQKQKIN are 0.0579 and 0.617.
Regarding KKHNKGQKQKIN, the protein stability index in the data set with Saccharomyces cerevisiae [1] was 0.0428; in the data set on Saccharomyces cerevisiae [2], 0.645.
Consider KKHVKGQKQKIN, for which the results for the protein stability index in the data set with Saccharomyces cerevisiae [1] and in the data set with Saccharomyces cerevisiae [2] were 0.0752 and 0.606, respectively.
On to LAILRQKMNHQN, for which the figures for the protein stability index in the data set with Saccharomyces cerevisiae [1] and with Saccharomyces cerevisiae [2] were 0.137 and 0.67, respectively.
LHVYLSCVACIN: the protein stability index in the data set with Saccharomyces cerevisiae [1] was 0.0172; in the data set with Saccharomyces cerevisiae [2], 0.109.
Consider LKIARQKMNHQN, for which the protein stability index with Saccharomyces cerevisiae [1] came to 0.277; with Saccharomyces cerevisiae [2], 0.694.
Consider LKIDRQKMNHQN, for which the protein stability index with Saccharomyces cerevisiae [1] came out at 0.241; in the data set on Saccharomyces cerevisiae [2], 0.676.
As to LKILNQKMNHQN, the results for the protein stability index in the data set on Saccharomyces cerevisiae [1] and in the data set on Saccharomyces cerevisiae [2] were 0.395 and 0.688, respectively.
The corresponding values for LKILRQKANHQN are 0.373 and 0.688.
On to LKILRQKMNFQN, for which the protein stability index in the data set on Saccharomyces cerevisiae [1] worked out at 0.225; with Saccharomyces cerevisiae [2], 0.674.
For LKILRQKMNHCN, the protein stability index in the data set on Saccharomyces cerevisiae [1] is 0.191; with Saccharomyces cerevisiae [2], 0.669.
The corresponding values for LKILRQKMNHQNV are 0.669 and 0.662.
The corresponding values for LKILRQKMNHQY are 0.274 and 0.684.
The corresponding values for LKILRQKMNPQN are 0.689 and 0.677.
With LKILRQKMNQQN, the values for the protein stability index in the data set with Saccharomyces cerevisiae [1] and with Saccharomyces cerevisiae [2] were 0.218 and 0.676, respectively.
The corresponding values for LKILRQKMNYQN are 0.219 and 0.657.
In the case of LKILRQKMVHQN, the protein stability index came out at 0.19 in the data set on Saccharomyces cerevisiae [1] and 0.657 in the data set on Saccharomyces cerevisiae [2].
The corresponding values for LKILRQNMNHQN are 0.255 and 0.667.
With LKILRTKMNHQN, the protein stability index was found to be 0.178 with Saccharomyces cerevisiae [1] and 0.678 in the data set with Saccharomyces cerevisiae [2].
Regarding LKMLRQKMNHQN, the protein stability index with Saccharomyces cerevisiae [1] was determined as 0.171; in the data set on Saccharomyces cerevisiae [2] it was 0.683.
As for LMILRQKMNHQN, the protein stability index with Saccharomyces cerevisiae [1] was found to be 0.166; in the data set with Saccharomyces cerevisiae [2], 0.676.
Consider LQVYLSCVACIN, for which the protein stability index with Saccharomyces cerevisiae [1] came out at 0.0249; in the data set on Saccharomyces cerevisiae [2] it was 0.0994.
On to LRVYLSCVACIN, for which the figures for the protein stability index with Saccharomyces cerevisiae [1] and with Saccharomyces cerevisiae [2] were 0.0194 and 0.121, respectively.
For LTSCGYKFRTNN, the values for the protein stability index in the data set with Saccharomyces cerevisiae [1] and in the data set with Saccharomyces cerevisiae [2] were 0.197 and 0.666, respectively.
The corresponding values for LVCYLSCVACIN are 0.0123 and 0.0279.
The corresponding values for LVHYLSCVACIN are 0.0263 and 0.188.
Turning to LVTYLSCVACIN, the protein stability index with Saccharomyces cerevisiae [1] was 0.0357; in the data set on Saccharomyces cerevisiae [2] it was 0.167.
For LVVRLSCVACIN, the protein stability index with Saccharomyces cerevisiae [1] is 0.0177; in the data set on Saccharomyces cerevisiae [2], 0.0347.
On to LVVTLSCVACIN, for which the protein stability index was determined as 0.0146 with Saccharomyces cerevisiae [1] and 0.0408 in the data set on Saccharomyces cerevisiae [2].
For the sequence LVVYLFCVACIN, the figures for the protein stability index in the data set with Saccharomyces cerevisiae [1] and in the data set on Saccharomyces cerevisiae [2] were 0.0137 and 0.0277, respectively.
The corresponding values for LVVYLMCVACIN are 0.0154 and 0.0335.
As to LVVYLSCDACIN, the protein stability index turned out to be 0.144 with Saccharomyces cerevisiae [1] and 0.191 in the data set with Saccharomyces cerevisiae [2].
The corresponding values for LVVYLSCGACIN are 0.283 and 0.3.
Regarding LVVYLSCVACIA, the protein stability index with Saccharomyces cerevisiae [1] was determined as 0.0168; in the data set on Saccharomyces cerevisiae [2] it was 0.0258.
On to LVVYLSCVACIK, for which the protein stability index worked out at 0.0121 in the data set with Saccharomyces cerevisiae [1] and 0.0213 in the data set with Saccharomyces cerevisiae [2].
As to LVVYLSCVACIL, the protein stability index with Saccharomyces cerevisiae [1] was 0.0189; with Saccharomyces cerevisiae [2], 0.032.
Regarding LVVYLSCVACINC, the protein stability index with Saccharomyces cerevisiae [1] is 0.0649; with Saccharomyces cerevisiae [2], 0.0918.
For the sequence LVVYLSCVACINR, the protein stability index came to 0.0215 in the data set on Saccharomyces cerevisiae [1] and 0.034 with Saccharomyces cerevisiae [2].
Regarding LVVYLSCVACINW, the results for the protein stability index in the data set on Saccharomyces cerevisiae [1] and with Saccharomyces cerevisiae [2] were 0.0246 and 0.0403, respectively.
Regarding LVVYLSCVACWN, the results for the protein stability index with Saccharomyces cerevisiae [1] and with Saccharomyces cerevisiae [2] were 0.0216 and 0.0568, respectively.
The corresponding values for LVVYLSCVAPIN are 0.457 and 0.449.
On to LVVYLSCVGCIN, for which the protein stability index worked out at 0.244 in the data set on Saccharomyces cerevisiae [1] and 0.293 in the data set on Saccharomyces cerevisiae [2].
The corresponding values for LVVYLSCVNCIN are 0.135 and 0.419.
For the sequence LVVYLSCVRCIN, the protein stability index in the data set with Saccharomyces cerevisiae [1] was 0.109; with Saccharomyces cerevisiae [2], 0.335.
With LVVYLSCVYCIN, the protein stability index with Saccharomyces cerevisiae [1] turned out to be 0.0441; in the data set with Saccharomyces cerevisiae [2] it was 0.158.
For the sequence LVVYLSCWACIN, the protein stability index in the data set with Saccharomyces cerevisiae [1] was 0.02; in the data set on Saccharomyces cerevisiae [2] it was 0.0504.
As to LVVYLSCYACIN, the figures for the protein stability index with Saccharomyces cerevisiae [1] and in the data set with Saccharomyces cerevisiae [2] were 0.0136 and 0.0478, respectively.
Consider LVVYLSQVACIN, for which the protein stability index in the data set with Saccharomyces cerevisiae [1] came to 0.0161; with Saccharomyces cerevisiae [2] it was 0.0854.
As for LVVYLVCVACIN, the protein stability index was 0.0125 in the data set on Saccharomyces cerevisiae [1] and 0.0307 in the data set with Saccharomyces cerevisiae [2].
Turning to MTSCGYKFRTNN, the protein stability index in the data set with Saccharomyces cerevisiae [1] came to 0.212; in the data set with Saccharomyces cerevisiae [2], 0.688.
The corresponding values for NRGAVGGWRLVG are 0.164 and 0.665.
As to PDARNHLIKLLN, the protein stability index in the data set with Saccharomyces cerevisiae [1] was determined as 0.12; in the data set on Saccharomyces cerevisiae [2] it was 0.612.
For PDKDNHLIKLLN, the protein stability index with Saccharomyces cerevisiae [1] came to 0.281; with Saccharomyces cerevisiae [2] it was 0.568.
On to PDKENHLIKLLN, for which the protein stability index with Saccharomyces cerevisiae [1] was 0.265; in the data set with Saccharomyces cerevisiae [2], 0.602.
The corresponding values for PDKHNHLIKLLN are 0.0998 and 0.622.
As to PDKNNHLIKLLN, the protein stability index turned out to be 0.242 in the data set on Saccharomyces cerevisiae [1] and 0.757 in the data set on Saccharomyces cerevisiae [2].
Take PDKRNHEIKLLN: the values for the protein stability index with Saccharomyces cerevisiae [1] and in the data set on Saccharomyces cerevisiae [2] were 0.447 and 0.596, respectively.
Turning to PDKRNHLFKLLN, the figures for the protein stability index in the data set with Saccharomyces cerevisiae [1] and in the data set on Saccharomyces cerevisiae [2] were 0.112 and 0.609, respectively.

Source of the values: the supplement of paper PMC10724198.
